Data reported in PMC8401544, “Cytotoxicity of Frutalin on Distinct Cancer Cells Is Independent of Its Glycosylation” (Molecules, 2021).

Biological target: the molecule itself
Test: dynamic light scattering; protein at 0.8-1.0 mg/mL in phosphate buffer, room temperature, filtered through 0.45 um; size distribution by intensity; measured diameter compared with that expected from the theoretical MW of a tetramer

B1: Frutalin produced in E. coli cleaved from TrxFTL (cFTL) (natural protein, Artocarpus incisa)
chain: GAMGNQQSGKSQTVIVGPWGAKVSTSSNGKAFDDGAFTGIREINLSYNKETAIGDFQVVYDLNGSPYVGQNHKSFITGFTPVKISLDFPSEYIMEVSGYTGNVSGYVVVRSLTFKTNKKTYGPYGVTSGTPFNLPIENGLIVGFKGSIGYWLDYFSMYLSL
notes: residues left after TEV cleavage (GA) and MG from the cloning restriction site; not glycosylated; 17421.61 Da by calculation; also called cleaved FTL; FTL cleaved from TrxFTL; source: E. coli BL21(DE3) (NZYBL21), purified (IMAC, TEV digestion, reverse IMAC on Ni-NTA); not shown: TrxA, N-terminal, cleaved; His6, N-terminal, cleaved
For B1, the “stoichiometry N” value was 4.

B2: Frutalin produced in E. coli in fusion with TrxA (TrxFTL) (natural protein, Artocarpus incisa)
chain: SSGENLYFQGAMGNQQSGKSQTVIVGPWGAKVSTSSNGKAFDDGAFTGIREINLSYNKETAIGDFQVVYDLNGSPYVGQNHKSFITGFTPVKISLDFPSEYIMEVSGYTGNVSGYVVVRSLTFKTNKKTYGPYGVTSGTPFNLPIENGLIVGFKGSIGYWLDYFSMYLSL
notes: 13 extra amino acids between the 6xHistag and frutalin; not glycosylated; Vector pETM20; also called FTL in fusion with TrxA; source: E. coli BL21(DE3) (NZYBL21), purified (IMAC, Nickel HisTrap); not shown: TrxA, N-terminal, kept; His6, internal (between TrxA and the TEV recognition site), kept
In the case of B2, the “stoichiometry N” value is reported as 4.
